Data as given in US20220002363A1, “COMPOSITIONS AND METHODS FOR TREATING PULMONARY DISEASE” (United States Government As Represented By The Department …, priority 2020, published 2022).

Key:
[1] = test system: Jurkat cells; test: Caspase 3/7 activity in Jurkat cells (bioactivity of sFasL proteins); format: cell-based, human
Description: Jurkat cells were incubated for 5 hours with wild type (WT) sFasL or a sFasL mutant (mut sFasL) in which 8 charged amino acids were changed to alanine. Caspase 3/7 activity was measured after incubation with the caspase 3/7 substrate at room temperature for 30 minutes. Data is shown as arbitrary luminescence units. […] Each dot represents individual data. Data analyzed by 2-way ANOVA with Sidak post-hoc analysis. ** p<0.01, *** p<0.001 compared to the respective concentration of mut-sFasL.
Methods. Cells and cell culture. To test Fas responses in vitro, the highly-Fas sensitive cell line, Jurak, was used. Jurak cells are human T lymphocyte cells first isolated from the peripheral blood of a child with acute cell leukemia (Gillis S and Watson J. J Exp Med. 1980; 152(6):1709-19). Jurak cells are exquisitely sensitive to Fas ligation and are commonly used as a model cell in studies involving the Fas/FasL system; here they are used as such, rather than as a model of T-cell responses. Jurak cells (human leukemic T lymphocytes) were purchased from ATCC (Clone TIB-152) and grown at 37° C. and 5% CO2 in RPMI-1640 medium supplemented with 10% heat-inactivated fetal bovine serum. Cells were authenticated using short tandem repeat analysis. Mycoplasma status was weakly positive by PCR (Venor GeM Mycoplasma Detection Kit, Sigma-Aldrich, Cat #MP0025). The Jurak data was confirmed in primary human lung epithelial cells and the murine alveolar epithelial cell line LA4, which are described herein.
Measurements of apoptotic cascade activation. Apoptotic cascade activation was assessed by determining caspase 3/7 activity and Annexin V externalization. Caspase-3/7 activity was measured using a commercial substrate (Caspase-Glo 3/7 Assay, Promega, Madison, Wis., Cat #G8090) following manufacturer's instructions. Annexin V was measured with a luminescent commercial assay that allows for measurement of annexin V externalization in adherent cells (RealTime-Glo Annexin V assay, Promega, Madison, Wis., Cat #JA1011). Luminescence was measured with a Synergy H4 Microplate Reader (BioTek, Winooski, Vt.).
Results. Mutations of the charged amino acids in the stalk region of sFasL influence its biological activity in vitro. To test whether the structure of the stalk region of sFasL influences its biological activity, a mutant sFasL molecule (mut-sFasL) was cloned in which 8 charged amino acids in the 26 amino acid stalk region were changed to the non-charged amino acid alanine (FIG. 7). DNA sequencing data for the FasL constructs was also carried out: DNA sequence of wild type sFasL construct and eight different clones. The mutant sFasL clone used in the study is clone 1. […]

[2] = biological target: T1, recombinant human soluble Fas (Homo sapiens, UniProt P25445); test: Fas-FasL binding assay on wells coated with recombinant human soluble Fas; settings: recombinant human Fas 5 μg/mL, detection with polyclonal anti-FasL antibodies
T1 construct: recombinant human soluble Fas receptors (PeproTech, Rocky Hill, N.J.); purchased PeproTech
T1 sequence (P25445 26-173 limits assumed): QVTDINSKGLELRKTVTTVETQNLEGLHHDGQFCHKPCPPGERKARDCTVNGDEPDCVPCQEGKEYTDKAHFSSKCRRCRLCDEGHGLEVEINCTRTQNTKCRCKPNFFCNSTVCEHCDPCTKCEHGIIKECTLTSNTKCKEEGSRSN
Description: The mixtures were incubated for 2 hours in 96-well plates pre-coated with recombinant hsFas (250 ng/ml). After washing unbound material, biotin was detected using HRP conjugated Streptavidin. […] The sFasL bound to Fas was detected using polyclonal anti-human FasL antibodies. […] Different molar ratios of the Fas-activating antibody CH-11 and mut-sFasL were added, and caspase 3/7 activity measured after 5 hours. […] Data represent the results from three separate experiments, each done in duplicate, and were analyzed by 2-way ANOVA with Sidak's post hoc analysis. […] Each dot represents individual data; lines represent means±SD. *=P<0.05; **=P<0.01, ***P<0.001.
Antibodies and Reagents. […] FLAG tagged mut-sFasL was detected using HRP anti-FLAG monoclonal antibody (Sigma-Aldrich, Cat #A85920). […]
WT-sFasL inhibition occurs prior to receptor binding. […] Recombinant human Fas at 250 ng/mL were coated and the binding of a fixed concentration of biotinylated WT-sFasL (70 ng/mL) were measured in the presence of serial 3-fold dilutions of either WT-sFasL or mut-sFasL. […] Serial dilutions of either WT-sFasL or mut-sFasL were incubated in wells coated with recombinant human Fas, 5 μg/mL, and after washing, detected sFasL bound to Fas using polyclonal anti-FasL antibodies. […]

B1: mut-sFasL: mutant sFasL molecule in which 8 charged amino acids in the 26 amino acid stalk region were changed to alanine (protein)
chain: QLFALQAALAALAASTSQMATASSLAKQIGHPSPPPEKKELRKVAHLTGKSNSRSMPLEWEDTYGIVLLSGVKYKKGGLVINETGLYFVYSKVYFRGQSCNNLPLSHKVYMRNSKYPQDLVMMEGKMMSYCTTGQMWARSSYLGAVFNLTSADHLYVNVSELSLVNFEESQTFFGLYKL
For B1, the “bioactivity (caspase 3/7) at the highest concentration tested” value ([1]; 810 ng/mL) was “retained some bioactivity”, the “caspase 3/7 activity” value ([1]; 5 hours incubation, compared to WT-sFasL) was “significantly reduced caspase 3/7 activity compared to WT-sFasL” and the “activity relative to the wild-type sFasL” value ([1]; caspase 3/7) was “approximately two orders of magnitude less than the wild-type sFasL”. For the same molecule, the “intrinsic caspase-3/7 activation” value ([1]; highest dose of 2430 ng/mL (corresponds to 1:81 WT:mut molar ratio)) was “leads to intrinsic caspase-3/7 activation”, the “binding curve to immobilized Fas relative to WT-sFasL” value [2] was “shifted to the right, indicating decreased binding ability for Fas” and the “binding curve to immobilized Fas relative to WT-sFasL” value ([2]; listed as mut sFasL) was “shifted to the left”.
